For 2 molecules, Kd and koff results are on record in doi:10.1101/2025.10.29.685445 (2025).

One assay addresses H501-016. Kind of assay: BLI. On the technique in general: Biolayer interferometry detects binding as a change in optical thickness at a sensor tip.
A further assay addresses H501-009. As to the kind of experiment: BLI.
A further assay concerns the target H501-015. Kind of assay: BLI.
A further assay concerns the target H501-012. As to the kind of experiment: BLI.
For a further assay, the target named is H501-003. Kind of assay: BLI.
A further assay concerns the target H501-020. Kind of assay: BLI.
The target in a further assay is H501-013. Kind of assay: BLI.
The target of assay [1] is HCoV-OC43 S1-CTD (residues 318-608), Fc- and His-tagged (HCoV-OC43). As to the kind of experiment: SPR. (SPR reads the build-up and loss of mass on a sensor chip optically.)
Assay [2] deals with T1, HCoV-HKU1 RBD (residues 310-606 of isolate N5), Fc- and His-tagged (HCoV-HKU1 (isolate N5), UniProt Q0ZME7 310-606).
T1 chain: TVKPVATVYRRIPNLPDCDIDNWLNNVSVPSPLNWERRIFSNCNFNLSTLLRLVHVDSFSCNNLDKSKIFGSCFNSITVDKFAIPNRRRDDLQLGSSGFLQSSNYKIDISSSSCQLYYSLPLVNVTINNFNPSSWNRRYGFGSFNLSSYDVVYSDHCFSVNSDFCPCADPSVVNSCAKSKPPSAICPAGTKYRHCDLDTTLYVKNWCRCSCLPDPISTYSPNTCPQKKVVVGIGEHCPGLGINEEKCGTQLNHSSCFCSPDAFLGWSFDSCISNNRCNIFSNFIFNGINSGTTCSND
As to the kind of experiment: SPR.

B1: HCoV-HKU1 RBD (residues 310-606 of isolate N5), as used in BLI (domain or fragment)
chain: TVKPVATVYRRIPNLPDCDIDNWLNNVSVPSPLNWERRIFSNCNFNLSTLLRLVHVDSFSCNNLDKSKIFGSCFNSITVDKFAIPNRRRDDLQLGSSGFLQSSNYKIDISSSSCQLYYSLPLVNVTINNFNPSSWNRRYGFGSFNLSSYDVVYSDHCFSVNSDFCPCADPSVVNSCAKSKPPSAICPAGTKYRHCDLDTTLYVKNWCRCSCLPDPISTYSPNTCPQKKVVVGIGEHCPGLGINEEKCGTQLNHSSCFCSPDAFLGWSFDSCISNNRCNIFSNFIFNGINSGTTCSND
Turning to B1, the Kd was 0.176 nM in the assay with H501-016; 5.44 nM in the assay with H501-009; 0.568 nM with H501-015; 1.87 nM with H501-012; 0.508 nM in the assay with H501-003; under 0.001 nM in the assay with H501-020. The molecule also displayed a Kd in the assay with H501-013 of 0.915 nM. In addition, the koff is 3.26e-05 s⁻¹ with H501-016; 0.000383 s⁻¹ with H501-009; 0.000117 s⁻¹ with H501-015; 0.000326 s⁻¹ in the assay with H501-012; under 1e-07 s⁻¹ in the assay with H501-020; 0.000209 s⁻¹ with H501-013.

B2: H501-008 Fab (Fab, V domains shown)
VH: QVQLVQSGGGVVQPGRSLRLSCAVSGFTLDRYAMHWVRQAPGKALEWVALMSADGREQYYAESVKGRFTFSRDSSKNTLYLQMHNLRTDDSSVYFCAREGPMYYDAWSGRSYYNNYALDVWGRGTTVAVSS
VL: QSVLTQPPSVSAAPGQTVTISCSGSSSNIGDNYVSWYQQVPGTAPRLLVYDNNRRPLGIPDRFSGSKSGTSATLAIAGLQTGDEADYYCGTWDSSLSAGVFGGGTKLTVV
For the molecule B2, the off-rate constant (koff) in assay [1] was found to be 0.042 s⁻¹; in assay [2], 0.000197 s⁻¹.

Broadly, the Kd is the equilibrium constant for the complex coming apart. The low end stands for higher affinity, the high end for lower affinity. The koff is the first-order rate constant of dissociation.
